Data taken from publication doi:10.1101/2024.11.23.624830 (bioRxiv, 2024).

Target: the molecule itself
Experiment: single-molecule photobleaching step analysis

B1: EmrE with a TC-tag (natural protein)
chain: MNPYIYLGGAILAEVIGTTLMKFSEGFTRLWPSVGTIICYCASFWLLAQTLAYIPTGIAYAIWSGVGIVLISLLSWGFFGQRLDLPAIIGMMLICAGVLIINLLSRSTPH
modifications: FlAsH dye bound covalently to the tetracysteine tag
Q: Which “stoichiometry N” value does the source give for B1 here?
A: 2
